For data set [1], the system named is CC(C)(COP(=O)(O)OP(=O)(O)OC[C@H]1O[C@@H](n2cnc3c(N)ncnc32)[C@H](O)[C@@H]1OP(=O)(O)O)[C@@H](O)C(=O)NCCC(=O)NCCSC(=O)CCC(=O)O. Kind of data set: purified protein. The settings on record: acetoacetate co-substrate, pH 8.6, 37 °C, 15 mM MgCl2.
The test system of the next data set is CC(=O)CC(=O)O. Kind of data set: purified protein. The settings on record: 1 mM succinyl-CoA, pH 8.6, 37 °C, 15 mM MgCl2.

For orientation: Km means the substrate concentration at which the rate is half of its maximum. The term kcat denotes the number of substrate molecules converted per active site and unit of time at saturation. HsSCOT (Homo sapiens): in data set [1], the Km is 971 µM and the kcat worked out at 190 s⁻¹. Besides, in the data set with CC(=O)CC(=O)O, the Km was determined as 765 µM and the turnover number (kcat) stood at 105 s⁻¹.

These data come from article PMC7402102.
